Test results taken from the supplement of paper PMC7877785.
± gives the uncertainty stated by the source.

Assay: self-splicing fitness, log relative to wild type (ln ratio); higher = more splicing; Tetrahymena group I intron in knt gene, E. coli kanamycin selection, DiMSum; sequences stand for … in CUCUCU…GGAGGGAAAAGUUAUCAGGCAUGCACCUGGUAGCUAGUCUUUAAACCAAUAGAUUGCAUCGGUUUAAAAGGCAAGACCGUCAAAUUGCGGGAAAGGGGUCAACAGCCGUUCAGUACCAAGUCUCAGGGGAAACUUUGAGAUGGCCUUGCAAAGGGUAUGGUAAUAAGCUGACGGACAUGGUCCUAACCACGCAGCCAAGUCCUAAGUCAACAGAUCUUCUGUUGAUAUGGAUGCAGUUCACAGACUAAAUGUCGGUCGGGGAAGAUGUAUUCUUCUCAUAAGAUAUAGUCGGACCUCUCCUUAAUGGGAGCUAGCGGAUGAAGUGAUGCAACACUGGAGCCGCUGGGAACUAAUUUGUAUGCGAAAGUAUAUUGAUUAGUUUUGGAGUACUCGUGGUCG
Outline: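 Six replicate transformations of E. coli BL21(DE3) with a pET-22b(+) library were grown overnight at 37°C or 30°C. The library randomised all eight P1ex-region intron nucleotides, the intron lying in the knt kanamycin-resistance gene, and plates were LB agar with or without 25 μg/mL kanamycin plus 100 μg/mL carbenicillin, 50 μM IPTG and 0.2% rhamnose. Pooled colonies were amplicon-sequenced on an Illumina HiSeq 2500, and fitness is the DiMSum error-weighted combination of wild-type-normalised replicate fold changes, kanamycin versus none.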

Sequence	self-splicing fitness (ln) (30 °C)	self-splicing fitness (ln) (37 °C)
AAUUAGCAAUAUUACGCGCC	-0.89 ± 0.23	-0.821 ± 0.34
AAUUAGCAAUAUUACGGAAU	-2.33 ± 0.27	-0.461 ± 0.18
AAUUAGCAAUAUUACGGACA	-0.45 ± 0.19	-1.28 ± 0.18
AAUUAGCAAUAUUACGGCCC	-0.766 ± 0.18	-0.626 ± 0.29
AAUUAGCAAUAUUACGGCCU	-0.324 ± 0.097	0.38 ± 0.16
AAUUAGCAAUAUUACGGCGA	-0.312 ± 0.1	0.113 ± 0.1
AAUUAGCAAUAUUACGGGAA	-1.88 ± 0.32	-1.88 ± 0.3
AAUUAGCAAUAUUACGGGAC		-0.571 ± 0.23
AAUUAGCAAUAUUACGGGUU	-1.4 ± 0.12	-0.955 ± 0.12
AAUUAGCAAUAUUACGGUGU	-2.48 ± 0.091	-1.32 ± 0.098
AAUUAGCAAUAUUACGUCGG	-2.72 ± 0.19	-1.66 ± 0.21
AAUUAGCAAUAUUACGUGAC	-2.05 ± 0.21	-2.73 ± 0.23
ACAAAGCAAUAUUACGAACA	-2.3 ± 0.12	-0.578 ± 0.1
ACAAAGCAAUAUUACGAACG	-1.1 ± 0.084	0.144 ± 0.093
ACAAAGCAAUAUUACGAAGC	-3.71 ± 0.22	-0.444 ± 0.15
ACAAAGCAAUAUUACGAAUA	-3.62 ± 0.29	-1.95 ± 0.17
ACAAAGCAAUAUUACGAGAU	-4 ± 0.19	-1.55 ± 0.097
ACAAAGCAAUAUUACGAGCC		-1.97 ± 0.25
ACAAAGCAAUAUUACGAUUA	-1.37 ± 0.11	-0.593 ± 0.11
ACAAAGCAAUAUUACGAUUU	-0.651 ± 0.066	-0.399 ± 0.078
ACAAAGCAAUAUUACGCACA	-0.593 ± 0.083	-0.0238 ± 0.099

Sequence	self-splicing fitness (ln) (30 °C)	self-splicing fitness (ln) (37 °C)
ACAAAGCAAUAUUACGCGAG	-1.33 ± 0.06	-0.621 ± 0.072
ACAAAGCAAUAUUACGCGCC	-0.241 ± 0.083	-0.055 ± 0.1
ACAAAGCAAUAUUACGCGGA	-1.7 ± 0.078	-0.866 ± 0.072
ACAAAGCAAUAUUACGCUUA	-2.37 ± 0.12	-1.71 ± 0.13
ACAAAGCAAUAUUACGGAUG	-1.59 ± 0.087	-1.08 ± 0.1
ACAAAGCAAUAUUACGGCGA	-0.177 ± 0.072	0.19 ± 0.094
ACAAAGCAAUAUUACGGGAA	-2.44 ± 0.18	-2.48 ± 0.17
ACAAAGCAAUAUUACGGUCU	-0.435 ± 0.056	0.237 ± 0.079
ACAAAGCAAUAUUACGGUGG	-3.64 ± 0.11	-2.07 ± 0.12
ACAAAGCAAUAUUACGGUUG	-2.44 ± 0.07	-1.89 ± 0.09
ACAAAGCAAUAUUACGUAAC	-3.21 ± 0.21	-1.67 ± 0.14
ACAAAGCAAUAUUACGUCCA	-1.62 ± 0.097	-0.403 ± 0.1
ACAAAGCAAUAUUACGUCUG	-1.1 ± 0.056	-0.244 ± 0.074
ACAAAGCAAUAUUACGUGAA	-1.51 ± 0.074	-1.5 ± 0.083
ACAAAGCAAUAUUACGUGCG	-1.07 ± 0.066	-0.382 ± 0.076
ACACAGCAAUAUUACGAAAU	-2.47 ± 0.13	-1.87 ± 0.12
ACACAGCAAUAUUACGAACC	-2.57 ± 0.48	-1.09 ± 0.45
ACACAGCAAUAUUACGACCG	-0.326 ± 0.077	0.342 ± 0.11
ACACAGCAAUAUUACGACCU	-0.472 ± 0.069	0.384 ± 0.092
ACACAGCAAUAUUACGCAUG	-1.04 ± 0.075	-0.692 ± 0.081
ACACAGCAAUAUUACGCAUU	-2.47 ± 0.081	-1.5 ± 0.087
